Reference: article PMC6182392

Target: Filgrastim (recombinant human granulocyte-colony stimulating factor from Escherichia coli) (human) (UniProt P09919)
Assay: SEC; HP-SEC, TSKgel G3000SWXL, 50 mM ammonium hydrogen carbonate pH 7.0, column 30°C; expired PDgrastim diluted to 0.25 mg/ml in 100 mM sodium acetate pH 5.0; dimer and oligomer assigned by retention relative to the monomer (Ph. Eur.)

relative peak area of dimer: 3.6% | relative peak area of oligomer: 0.1% | stoichiometry N: 2
Substance: Filgrastim (recombinant human granulocyte-colony stimulating factor from Escherichia coli) (from UniProt P09919-2 31-204) (ligand)
